Source: the supplement of paper PMC10724198
± gives the standard deviation of the averaged measurements.

What was measured:
Saccharomyces cerevisiae [1] = experiment: protein stability index of tFT-peptide fusion (C-terminal peptide) (PSI (0-1 scale)); higher = more stable (slower turnover)
Procedure: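 MPS profiling in S. cerevisiae of the tFT-X12 degron library: putative degron peptides plus stable controls, 12 aa, fused to the C-terminus of a sfGFP-mCherry timer. Cells are FACS-sorted into 8 mCherry/sfGFP bins and deep-sequenced. PSI runs from 0 (unstable) to 1 (stable). Backgrounds are wild type, das1Δ and doa10Δ at 30 °C, and wild type, das1Δ, cdc34-1 and cdc53-1 at 37 °C; 2-3 technical replicates each.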

Saccharomyces cerevisiae [2] = experiment: as above; settings: genetic background: wild type; temperature: 30 C
[3] = genetic background: cdc34-1, temperature: 37 C
[4] = genetic background: cdc53-1, temperature: 37 C
[5] = genetic background: das1 deletion, temperature: 30 C
[6] = genetic background: das1 deletion, temperature: 37 C
[7] = genetic background: doa10 deletion, temperature: 30 C
[8] = genetic background: wild type, temperature: 30 C
[9] = genetic background: wild type, temperature: 37 C
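Note: PSI is a weighted mean of sequencing reads over stability bins, variants kept only with over 10 reads, mCherry proximal and sfGFP distal, peptide attached via GGGS linker.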

Sequence	protein stability index (Saccharomyces cerevisiae [1]; [3])	protein stability index (Saccharomyces cerevisiae [1]; [4])	protein stability index (Saccharomyces cerevisiae [1]; [5])	protein stability index (Saccharomyces cerevisiae [1]; [6])	protein stability index (Saccharomyces cerevisiae [1]; [7])	protein stability index (Saccharomyces cerevisiae [1]; [8])	protein stability index (Saccharomyces cerevisiae [1]; [9])	protein stability index (Saccharomyces cerevisiae [2])
VFSFLYHVVPVL	0.4374 ± 0.0012	0.49 ± 0.013	0.36 ± 0.028	0.505 ± 0.01	0.324 ± 0.018	0.348 ± 0.024	0.4554 ± 0.0018	0.441 ± 0.01
VFVMRDGFLRKV	0.63323 ± 0.00049	0.7055 ± 0.004	0.636 ± 0.022	0.748 ± 0.025	0.301 ± 0.013	0.341 ± 0.015	0.4507 ± 0.0016	0.374 ± 0.044
VFWISRLYLASY	0.474 ± 0.027	0.524 ± 0.023	0.442 ± 0.037	0.588 ± 0.012	0.42 ± 0.017	0.362 ± 0.023	0.52 ± 0.02	0.456 ± 0.02
VGDFFVLVGFVA	0.493 ± 0.0097	0.538 ± 0.011	0.386 ± 0.028	0.547 ± 0.0057	0.336 ± 0.0095	0.382 ± 0.022	0.5219 ± 0.0043	0.492 ± 0.053
VGDIRSFALWYA	0.699 ± 0.039	0.765 ± 0.014	0.661 ± 0.015	0.74 ± 0.0047	0.656 ± 0.038	0.646 ± 0.011	0.707 ± 0.011	0.745 ± 0.041
VGGGGRFWVCVG	0.657 ± 0.03	0.73937 ± 0.00061	0.629 ± 0.0064	0.737 ± 0.011	0.2122 ± 0.0019	0.237 ± 0.025	0.552 ± 0.031	0.406 ± 0.04
VGVSCLVFFGVV	0.644 ± 0.023	0.653 ± 0.0091	0.511 ± 0.017	0.6636 ± 0.0025	0.484 ± 0.026	0.509 ± 0.021	0.633 ± 0.0085	0.549 ± 0.11
VIAYSLLSWGDF	0.308 ± 0.0034	0.341 ± 0.019	0.378 ± 0.04	0.319 ± 0.023	0.403 ± 0.029	0.371 ± 0.021	0.305 ± 0.016	0.371 ± 0.028
VLDFSVPRHVLH	0.696 ± 0.014	0.7655 ± 0.0041	0.66 ± 0.0056	0.7364 ± 0.0016	0.661 ± 0.013	0.678 ± 0.035	0.7472 ± 0.0033	0.707 ± 0.024
VLFFCLVIYVGV	0.187 ± 0.0071	0.23702 ± 9.6e-05	0.183 ± 0.015	0.29 ± 0.035	0.141 ± 0.015	0.187 ± 0.027	0.26 ± 0.0013	0.217 ± 0.018
VLILFFLVVFYV	0.217 ± 0.015	0.294 ± 0.0088	0.267 ± 0.033	0.347 ± 0.018	0.2543 ± 0.0024	0.237 ± 0.021	0.3358 ± 0.0033	0.262 ± 0.037
VLLCASPMLAVV	0.343 ± 0.028	0.356 ± 0.022	0.289 ± 0.024	0.423 ± 0.0087	0.249 ± 0.0027	0.297 ± 0.011	0.39 ± 0.0039	0.393 ± 0.03
VLLCGCVWLWWG	0.437 ± 0.034	0.507 ± 0.006	0.371 ± 0.038	0.5248 ± 0.004	0.349 ± 0.013	0.364 ± 0.014	0.5013 ± 0.0039	0.4494 ± 0.0012
VLLFGLAFFFSF	0.422 ± 0.058	0.4953 ± 0.0026	0.367 ± 0.053	0.537 ± 0.036	0.222 ± 0.013	0.241 ± 0.029	0.408 ± 0.033	0.371 ± 0.055
VLLGYPRILSLF	0.7 ± 0.059	0.8278 ± 0.002	0.681 ± 0.0075	0.8122 ± 0.0047	0.1646 ± 0.0013	0.167 ± 0.021	0.25 ± 0.0096	0.35 ± 0.061
VLLRSRLLRRLS	0.588 ± 0.055	0.6547 ± 0.0063	0.67 ± 0.048	0.72 ± 0.033	0.137 ± 0.013	0.137 ± 0.038	0.235 ± 0.02	0.211 ± 0.024
VLRCIWLCFLSV	0.487 ± 0.025	0.5129 ± 0.0034	0.439 ± 0.034	0.607 ± 0.032	0.448 ± 0.039	0.4 ± 0.013	0.561 ± 0.036	0.465 ± 0.043
VLRLVLFVLISV	0.311 ± 0.065	0.348 ± 0.019	0.277 ± 0.03	0.387 ± 0.016	0.2853 ± 0.0015	0.268 ± 0.015	0.352 ± 0.016	0.337 ± 0.0069
VLSCVWFVVVGV	0.247 ± 0.013	0.316 ± 0.034	0.245 ± 0.028	0.441 ± 0.019	0.202 ± 0.0034	0.22 ± 0.033	0.4017 ± 0.0016	0.3596 ± 0.00083
VLYWTGTLFVSL	0.208 ± 0.00082	0.355 ± 0.0038	0.218 ± 0.017	0.426 ± 0.0064	0.195 ± 0.019	0.233 ± 0.028	0.424 ± 0.038	0.307 ± 0.035
